For experiment [1], the target named is T1, mouse Siglec15-his protein (mouse).
T1 construct: In house made
T1 chain: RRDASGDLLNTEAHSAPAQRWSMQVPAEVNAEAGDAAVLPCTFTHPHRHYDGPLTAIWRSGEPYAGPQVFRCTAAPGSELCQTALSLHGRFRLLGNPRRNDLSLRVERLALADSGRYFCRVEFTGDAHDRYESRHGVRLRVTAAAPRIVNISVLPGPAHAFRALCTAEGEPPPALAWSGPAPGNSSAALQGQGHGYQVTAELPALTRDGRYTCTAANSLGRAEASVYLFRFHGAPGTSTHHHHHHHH
The experiment is described as follows: SPR Biacore T200, antibody captured by anti-human IgG, antigen as analyte, 1:1 fit. The procedure: Briefly, goat anti-human IgG (GE healthcare, Cat #BR100839, Human Antibody Capture Kit) was covalently linked to a CM5 chip (carboxy methyl dextran coated chip, GE healthcare, Cat #BR-1005-30) via primary amines, using a standard amine coupling kit provided by Biacore (GE healthcare, Pittsburgh, Pa., USA). Un-reacted moieties on the biosensor surface were blocked with ethanolamine. Then, purified anti-Siglec15 antibodies of the disclosure at the concentration of 13.3 nM and an anti-Siglec15 benchmark (ch5G12, also referred to as BM, see U.S. Patent Publication No. 20190202912A1, amino acid sequences of the heavy chain and light chain set forth in SEQ ID NOs: 24 and 25, respectively) at 13.3 nM, were respectively flowed onto the chip at a flow rate of 10 μL/min. Then, serially diluted recombinant human Siglec15-his protein (in house made, amino acid sequence set forth in SEQ ID NO: 20) or cynomolgus monkey Siglec15-his protein (in house made, amino acid sequence set forth in SEQ ID NO: 21), 2-fold serial dilution in HBS-EP⁺ buffer starting at 80 nM, were respectively flown onto the chip at a flow rate of 30 μL/min. The antigen-antibody association kinetics was followed for 2 minutes and the dissociation kinetics was followed for 10 minutes. The association and dissociation curves were fit to a 1:1 Langmuir binding model using BIAcore evaluation software.
For the BIAcore test measuring the binding affinities of the modified A2A5C7E8 variants to mouse Siglec 15, mouse Siglec15-his protein (in house made with SEQ ID NO: 22) was used.

Experiment [2] addresses T2, recombinant human Siglec15-his protein (human, UniProt Q6ZMC9 20-263).
T2 construct: In house made; Biotin-labeled in the capture ELISA
T2 sequence: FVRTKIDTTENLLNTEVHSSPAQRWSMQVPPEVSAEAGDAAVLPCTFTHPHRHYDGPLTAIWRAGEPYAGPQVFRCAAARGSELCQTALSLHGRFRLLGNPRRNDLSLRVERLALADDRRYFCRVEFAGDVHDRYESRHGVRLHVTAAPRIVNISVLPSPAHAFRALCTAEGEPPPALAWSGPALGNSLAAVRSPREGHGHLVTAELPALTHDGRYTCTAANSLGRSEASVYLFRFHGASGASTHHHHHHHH
The experiment is described as follows: SPR Biacore T200, antibody captured by anti-mouse IgG, antigen as analyte, 1:1 fit. The procedure: (§1) Briefly, goat anti-mouse IgG (GE healthcare, Cat #BR100838, Mouse Antibody Capture Kit) was covalently linked to a CM5 chip (carboxy methyl dextran coated chip from GE healthcare, Cat #BR100530) via primary amines using a standard amine coupling kit (GE healthcare, Pittsburgh, Pa., USA) provided by Biacore. Un-reacted moieties on the biosensor surface were blocked with ethanolamine. The purified mouse anti-Siglec15 antibodies of the disclosure at the concentration of 13.3 nM, were respectively flowed onto the chip at a flow rate of 10 μL/min. Then, serially diluted human Siglec15-his protein (in house made, amino acid sequence set forth in SEQ ID NO: 20), cynomolgus monkey Siglec15-his protein (in house made, amino acid sequence set forth in SEQ ID NO: 21), or mouse Siglec15-his protein (in house made, amino acid sequence set forth in SEQ ID NO: 22), 2-fold dilution in HBS-EP⁺ buffer (provided by Biacore) starting at 80 nM, were flowed onto the chip at a flow rate of 30 μL/min. The antigen-antibody association kinetics was followed for 2 minutes and the dissociation kinetics was followed for 10 minutes. The association and dissociation curves were fit to a 1:1 Langmuir binding model using BIAcore evaluation software.
In general terms: Surface plasmon resonance follows binding to a sensor surface in real time, without labels.

Experiment [3] deals with T1, mouse Siglec15-his protein. The experiment is described as above. On the procedure:
as §1

The target in experiment [4] is T3, cynomolgus monkey Siglec15-his protein (cynomolgus monkey).
T3 construct: In house made; also called Cynomolgus Siglec15-his; cynomolgus Siglec15
T3 chain: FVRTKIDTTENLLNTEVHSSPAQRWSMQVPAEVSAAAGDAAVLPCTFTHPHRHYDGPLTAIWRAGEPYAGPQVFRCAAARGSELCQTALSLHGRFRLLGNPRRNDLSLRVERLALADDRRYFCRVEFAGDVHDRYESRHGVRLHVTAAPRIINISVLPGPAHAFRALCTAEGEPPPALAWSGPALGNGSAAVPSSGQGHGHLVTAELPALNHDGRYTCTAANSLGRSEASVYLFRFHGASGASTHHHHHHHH
The description is as above. The procedure: as §1

B1: anti-Siglec15 benchmark (ch5G12) (antibody, human IgG1, kappa, V domains shown)
VH: QVQLQQPGAELVKPGASVKMSCKASGYTFTSYWITWVIQRPGQGLEWIGDIYCGSDTMHYNEKFKNKATLTVDTSSSTAYMQLSSLTSEDSAVYYCARWWDYGSSYDYFDYWGQGTTLTVSS
VL: DIKMTQSPSSMYASLGERVTITCKASQDINSYLSWFQQKPGKSPKTLIYRANRLVDGVPSRFSGSGSGQDYSLTISSLEYEDMGIYYCLQYDEFPYTFGGGTKLEIKR
notes: ch5G12 (US 20190202912A1); also called BM; Siglec15-ch5G9
In the case of B1, in experiment [1], the Kd (in general, the constant that tells how readily two partners part at equilibrium) is 0.17 nM; the koff – broadly, a measure of how fast the partners let go of each other – came to 0.000931 s⁻¹; the kon – broadly, the rate constant with which the complex forms – was found to be 5.47e+06 M⁻¹ s⁻¹.

B2: A2A5C7E8 (antibody, V domains shown)
VH: EVQLVQSGAEVKKPGESLRISCKGSGYSFTTYWISWVRQMPGKGLEWMGLIDPSDSYTNYSPSFQGHVTISTDKSISTAYLQWSSLKASDTAMYYCARGGYYGSEEDYWGQGTLVTVSS
VL: EIVLTQSPGTLSLSPGERATLSCRASQSVSSSRLAWFQQKSGQAPRLLIFDASSRATGIPDRFSGSGSGTDFTLTISRLEPEDFAVYYCQQYGSSPRTFGQGTKVEFK
notes: Fully human antibody from transgenic mouse hybridoma; also called A2A5C7E8-1
For the molecule B2, in experiment [1], binding was characterised by a dissociation constant (Kd) of 0.0875 nM, the off-rate (koff) is 0.000187 s⁻¹ and the kon came out at 2.14e+06 M⁻¹ s⁻¹.

B3: A2A5C7E8-2 (antibody, human IgG1, kappa, V domains shown)
VH: EVQLVQSGAEVKKPGESLRISCKGSGYSFTTYWISWVRQMPGKGLEWMGLIDPSESYTNYSPSFQGHVTISTDKSISTAYLQWSSLKASDTAMYYCARGGYYGSEEDYWGQGTLVTVSS
VL: EIVLTQSPGTLSLSPGERATLSCRASQSVSSSRLAWFQQKSGQAPRLLIFDASSRATGIPDRFSGSGSGTDFTLTISRLEPEDFAVYYCQQYGSSPRTFGQGTKVEFKR
notes: Variant of A2A5C7E8 modified in VH CDR2 (X1 = E)
In experiment [1], B3 had a Kd of 0.188 nM, a koff of 0.000495 s⁻¹ and an on-rate (kon) of 2.63e+06 M⁻¹ s⁻¹.

B4: A2A5C7E8-3 (antibody, human IgG1, kappa, V domains shown)
VH: EVQLVQSGAEVKKPGESLRISCKGSGYSFTTYWISWVRQMPGKGLEWMGLIDPSDSYTNYSPSFKGHVTISTDKSISTAYLQWSSLKASDTAMYYCARGGYYGSEEDYWGQGTLVTVSS
VL: EIVLTQSPGTLSLSPGERATLSCRASQSVSSSRLAWFQQKSGQAPRLLIFDASSRATGIPDRFSGSGSGTDFTLTISRLEPEDFAVYYCQQYGSSPRTFGQGTKVEFKR
notes: Variant of A2A5C7E8 modified in VH CDR2 (X2 = K)
With B4, in experiment [1], the Kd was 0.0737 nM, the koff was found to be 0.000165 s⁻¹ and the kon turned out to be 2.24e+06 M⁻¹ s⁻¹.

B5: B2D7H7A3C1 (antibody, V domains shown)
VH: QVQLQQSGAELVRPGTSVQMSCKAAGYTFTNYWIGWVKQRPGHGLEWVGDIHPGINYTNNNEKFRGKATLTADTSSNTAYMQLRGLTSDDSAIYYCARVDYDYDGSYIMDYWGQGTSVTVSS
VL: QIVLSQSPALLSASPGEKVTMTCRASSSVSYMYWYQQKPGSSPKPWIYATSNLTSGVPARFSGSGSGTSYSLTISRVEAEDAATYFCQQWNSKPWTFGGGSKLEIR
notes: Mouse monoclonal antibody from hybridoma; also called mouse B2D7H7A3C1
B5: the results for the dissociation constant (Kd) in experiment [2], in experiment [3] and in experiment [4] were 0.0352 nM, 0.337 nM and 0.476 nM, respectively. The off-rate constant (koff) came out at 5.46e-05 s⁻¹ in experiment [2], 0.00445 s⁻¹ in experiment [3] and 0.000338 s⁻¹ in experiment [4]. Besides, the values for the on-rate (kon) in experiment [2], in experiment [3] and in experiment [4] were 1.55e+06 M⁻¹ s⁻¹, 1.32e+07 M⁻¹ s⁻¹ and 711000 M⁻¹ s⁻¹, respectively.

B6: B2H2H1H7 (antibody, V domains shown)
VH: QVQLQQSGAELVRPGTSVQMSCKAAGYTFTNYWIGWVKQRPGHGLEWVGDIHPGINYTNNNEKFRGKATLTADTSSSTAYMQLRGLTSDDSAIYYCARVDYDYDGSYIMDYWGQGTSVTVSS
VL: QIILSQSPALLSASPGEKVTMTCRASSSVSYMYWYQQKPGSSPKPWIYATSNLTSGVPARFSGSGSGTSYSLTISRVEAEDAATYFCQQWNSKPWTFGGGSRLEIR
notes: Mouse monoclonal antibody from hybridoma; also called mouse B2H2H1H7; B2H2H1A7
As for B6, in experiment [2], the dissociation constant (Kd) was 0.016 nM, the koff amounted to 3.18e-05 s⁻¹ and the on-rate (kon) was 1.99e+06 M⁻¹ s⁻¹. Besides, in experiment [3], the dissociation constant Kd worked out at 0.39 nM, the koff came out at 0.00737 s⁻¹ and the on-rate constant (kon) was 1.89e+07 M⁻¹ s⁻¹. In experiment [4], this molecule showed a Kd of 0.405 nM, a koff of 0.000352 s⁻¹ and an on-rate (kon) of 869000 M⁻¹ s⁻¹.

B7: B2G12H3E8 (antibody, V domains shown)
VH: QVQLKQSGAELVRPGTSVQMSCKAVGYTFTNYWIGWVKQRPGHGLEWVGDIHPGINYTNNNEKFRGKATLTADTSSSTAYMQLRGLTSDDSAIYYCARVDYDYDGSYIMDYWGQGTSVTVSS
VL: QIVLSQSPALLSASPGEKVTMTCRASSSVSYMYWYQQKPGSSPKPWIYATSNLTSGVPARFSGSGSGTSYSLTISRVEAEDAATYFCQQWNSKPWTFGGGSKLEIR
notes: Mouse monoclonal antibody from hybridoma; also called mouse B2G12H3E8
B7: in experiment [2], the Kd was 0.00858 nM, the koff came out at 1.76e-05 s⁻¹ and the kon is 2.05e+06 M⁻¹ s⁻¹. In experiment [3], this molecule registered an equilibrium dissociation constant (Kd) of 0.423 nM, a koff of 0.0108 s⁻¹ and an on-rate (kon) of 2.55e+07 M⁻¹ s⁻¹. Further, in experiment [4], binding was characterised by a dissociation constant (Kd) of 0.372 nM, the off-rate constant (koff) is 0.000371 s⁻¹ and the association rate constant (kon) was found to be 996000 M⁻¹ s⁻¹.

Source of the values: US20230106715A1 (BIOSION, published 2023).
